Data taken from patent US20020062008A1.

Tests used:
[1] = molecular target: recombinant VCAM-1 (commercial preparation, R & D Systems), immobilized (UniProt P19320); test: cell-based or functional assay
[2] = molecular target: immobilized CD11b/CD18 (UniProt P05107); test: ELISA as printed: αd/CD18 and immobilized CD11b/CD18
[3] = molecular target: LFA-1 leucine zipper fusion protein (soluble CD11a/CD18) (UniProt P20701); test: ELISA as printed: αd/CD18 and immobilized CD11a/CD18
[4] = molecular target: soluble ICAM-R/IgG1 fusion protein (UniProt P32942); test: ELISA, soluble integrin supernatant on immobilized ICAM-R/Ig, non-blocking antibody detection
Sequence of soluble ICAM-R/IgG1 fusion protein (P32942 30-485 limits assumed): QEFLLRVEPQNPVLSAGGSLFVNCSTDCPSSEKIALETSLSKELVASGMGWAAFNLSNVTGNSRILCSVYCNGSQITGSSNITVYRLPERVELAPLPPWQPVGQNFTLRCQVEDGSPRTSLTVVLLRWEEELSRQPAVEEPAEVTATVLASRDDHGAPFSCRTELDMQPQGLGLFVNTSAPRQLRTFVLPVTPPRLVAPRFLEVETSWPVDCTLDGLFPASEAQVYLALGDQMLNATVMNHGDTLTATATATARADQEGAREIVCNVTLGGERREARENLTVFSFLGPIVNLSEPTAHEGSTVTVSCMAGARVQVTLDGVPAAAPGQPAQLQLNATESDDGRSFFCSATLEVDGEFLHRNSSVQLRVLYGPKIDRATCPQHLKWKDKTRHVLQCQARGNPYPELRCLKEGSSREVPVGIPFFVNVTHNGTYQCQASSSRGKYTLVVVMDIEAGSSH

[5] = molecular target: two domain VCAM-1/Fc with substitution at residue 40 (UniProt P19320); test: adhesion of αdβ2 CHO cells to immobilized mutant VCAM-1/Fc
Sequence of two domain VCAM-1/Fc with substitution at residue 40 (P19320 25-220): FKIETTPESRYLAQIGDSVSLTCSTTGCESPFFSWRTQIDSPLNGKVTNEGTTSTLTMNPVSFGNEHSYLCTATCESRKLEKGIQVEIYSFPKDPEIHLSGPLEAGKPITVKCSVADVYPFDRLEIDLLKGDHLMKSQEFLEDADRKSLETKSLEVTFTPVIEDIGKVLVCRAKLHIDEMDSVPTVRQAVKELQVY

Sequence of recombinant VCAM-1 (commercial preparation, R & D Systems), immobilized (P19320 25-698 limits assumed): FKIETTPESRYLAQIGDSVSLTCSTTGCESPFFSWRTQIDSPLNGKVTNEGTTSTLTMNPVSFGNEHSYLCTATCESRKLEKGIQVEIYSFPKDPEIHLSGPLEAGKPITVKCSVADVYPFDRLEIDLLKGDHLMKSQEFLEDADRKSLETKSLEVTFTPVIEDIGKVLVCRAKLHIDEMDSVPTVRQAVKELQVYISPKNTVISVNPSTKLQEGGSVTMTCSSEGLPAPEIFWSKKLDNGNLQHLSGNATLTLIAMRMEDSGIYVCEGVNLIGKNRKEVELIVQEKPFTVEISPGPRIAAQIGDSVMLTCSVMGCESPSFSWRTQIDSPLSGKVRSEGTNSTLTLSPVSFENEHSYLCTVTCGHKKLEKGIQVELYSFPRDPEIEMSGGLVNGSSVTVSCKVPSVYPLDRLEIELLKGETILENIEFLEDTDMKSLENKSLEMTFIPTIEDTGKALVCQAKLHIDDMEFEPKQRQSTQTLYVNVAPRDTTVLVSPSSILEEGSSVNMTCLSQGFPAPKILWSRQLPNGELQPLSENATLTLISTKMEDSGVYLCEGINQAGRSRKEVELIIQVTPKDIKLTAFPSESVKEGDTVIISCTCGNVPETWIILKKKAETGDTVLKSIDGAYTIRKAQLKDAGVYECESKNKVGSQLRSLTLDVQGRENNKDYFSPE

α4 integrins on human eosinophils (from UniProt P13612 34-1032; P05556 21-798) (receptor)
binding rate of IL-5 cultured eosinophils to immobilized VCAM-1 in the presence of a monoclonal antibody against α4 [1]: 18.1%

soluble human αd/CD18 leucine zipper heterodimer (from UniProt P05107 23-700) (receptor)
fold greater than background binding [2]: 15 fold
fold greater than background binding [3]: 5 fold
fold greater than control well [4]: 10 fold

human αd/CD18 heterodimer expressed on transfected cells (COS, CHO, JY) (from UniProt P05107 23-769) (receptor)
binding relative to wild-type VCAM-1 [5]: 50%
